Data published in paper PMC4051121.

Biological target: GltPh-K55C-A364C cross-linked with mercury (Pyrococcus horikoshii) (UniProt O59010)
Assay: crystal structure; GltPh^in crystals grown at 4°C in 14–20% PEG 400, 0.1 M potassium citrate pH 5.0–6.0, with lipids and n-decyl-α-D-maltopyranoside; soaked in Tl+ or alkali-free solutions; trimer with three protomers

stoichiometry N: 3
Substance: GltPh-K55C-A364C cross-linked with mercury (from UniProt O59010 1-425) (natural protein)
